US20250289897A1 (Eli Lilly, published 2025)
Residue numbers refer to the chain shown, from its start.

B1: Antibody A (antibody, human IgG1, kappa, L234A L235A)
heavy: EVQLLESGGGLVQPGGSLRLSCAASGFTFSSFAMSWVRQAPGKGLEWVSAISGSGGSTYSADSVRGRFTISRDNSKNTLYLQMNSLRAEDTAVYYCAKDQGDWDFLFDYWGQGTLVTVSSASTKGPSVFPLAPSSKSTSGGTAALGCLVKDYFPEPVTVSWNSGALTSGVHTFPAVLQSSGLYSLSSVVTVPSSSLGTQTYICNVNHKPSNTKVDKRVEPKSCDKTHTCPPCPAPEAAGGPSVFLFPPKPKDTLYITREPEVTCVVVSVSHEDPEVKFNWYVDGVEVHNAKTKPREEQYNSTYRVVSVLTVLHQDWLNGKEYKCKVSNKALPAPIEKTISKAKGQPREPQVYTLPPSREEMTKNQVSLTCLVKGFYPSDIAVEWESNGQPENNYKTTPPVLDSDGSFFLYSKLTVDKSRWQQGNVFSCSVMHEALHNHYTQKSLSLSPGK
light: DIQMTQSPSFLSASVGDRVTITCRASQGISSSLAWYQQKPGKAPKLLIYTASTLQSGVPSRFSGSGSGTEFTLTISSLQPEDFATYYCQQLIYYPFTFGQGTKVEIKRTVAAPSVFIFPPSDEQLKSGTASVVCLLNNFYPREAKVQWKVDNALQSGNSQESVTEQDSKDSTYSLSSTLTLSKADYEKHKVYACEVTHQGLSSPVTKSFNRGEC
notes: IgG1 mAb
B2: Antibody B (antibody, human IgG1, kappa, L234A L235A, V domains shown)
VH: EVQLLESGGGLVQPGGSLRLSCAASGFTFSSFAMSWVRQAPGKGLEWVSAISGSGGSTYSADSVRGRFTISRDNSKNTLYLQMNSLRAEDTAVYYCAKDQGDWDFLFDYWGQGTLVTVSS
VL: DIQMTQSPSFLSASVGDRVTITCRVSQGISSSLAWYQQKPGKAPKLLIYTASTLQSGVPSRFSGSGSGTEFTLTISSLQPEDFATYYCQQLNYYPFTFGQGTKVEIKR
B3: Antibody C (antibody, human IgG1, kappa, L234A L235A, V domains shown)
VH: B2 VH
VL: B2 VL with V25A, T97S

Tests used:
[1] = molecular target: T1, human LEPR, full length, on HEK293-STAT3Luc-hLepR1 cells (Homo sapiens, UniProt P48357 22-1165); experiment: cell-based or functional assay
T1 sequence: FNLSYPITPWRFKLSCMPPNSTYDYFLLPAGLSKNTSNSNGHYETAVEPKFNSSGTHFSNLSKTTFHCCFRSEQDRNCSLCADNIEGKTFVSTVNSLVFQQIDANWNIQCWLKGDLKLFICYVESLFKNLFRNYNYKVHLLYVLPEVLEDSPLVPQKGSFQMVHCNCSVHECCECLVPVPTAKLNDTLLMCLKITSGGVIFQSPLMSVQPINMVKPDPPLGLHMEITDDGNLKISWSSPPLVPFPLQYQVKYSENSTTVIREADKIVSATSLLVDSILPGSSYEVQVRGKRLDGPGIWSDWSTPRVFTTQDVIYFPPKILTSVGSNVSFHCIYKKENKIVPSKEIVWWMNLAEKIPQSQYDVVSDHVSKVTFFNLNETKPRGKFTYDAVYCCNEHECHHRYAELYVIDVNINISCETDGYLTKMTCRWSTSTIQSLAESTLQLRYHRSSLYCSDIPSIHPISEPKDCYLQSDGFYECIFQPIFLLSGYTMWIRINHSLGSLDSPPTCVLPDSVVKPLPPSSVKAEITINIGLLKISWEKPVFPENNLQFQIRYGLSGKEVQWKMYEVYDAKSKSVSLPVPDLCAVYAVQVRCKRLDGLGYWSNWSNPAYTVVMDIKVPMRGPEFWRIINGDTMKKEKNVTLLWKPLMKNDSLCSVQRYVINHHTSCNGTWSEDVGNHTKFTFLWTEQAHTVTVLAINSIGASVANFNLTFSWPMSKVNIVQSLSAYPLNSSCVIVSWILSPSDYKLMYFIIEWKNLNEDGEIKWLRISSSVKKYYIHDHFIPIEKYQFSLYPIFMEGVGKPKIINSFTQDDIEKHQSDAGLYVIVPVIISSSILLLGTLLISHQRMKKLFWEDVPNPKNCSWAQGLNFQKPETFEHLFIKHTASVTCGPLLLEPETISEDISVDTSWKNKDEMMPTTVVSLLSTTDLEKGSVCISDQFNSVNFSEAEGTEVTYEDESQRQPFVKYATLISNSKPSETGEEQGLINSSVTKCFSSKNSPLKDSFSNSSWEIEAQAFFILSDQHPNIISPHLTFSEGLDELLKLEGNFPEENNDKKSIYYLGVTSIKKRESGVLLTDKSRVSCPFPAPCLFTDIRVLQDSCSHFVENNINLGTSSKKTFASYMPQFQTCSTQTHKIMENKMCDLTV

[2] = molecular target: T1, human LEPR, full length, on …; experiment: cell-based or functional assay; remark: listed apart in the source
Rat LEPR-ECD-His = molecular target: T2, Rat LEPR-ECD-His (rat, UniProt Q62959 22-839); experiment: SPR (Biacore T200), antibody captured on Protein A/G chip, n = 1
T2 sequence: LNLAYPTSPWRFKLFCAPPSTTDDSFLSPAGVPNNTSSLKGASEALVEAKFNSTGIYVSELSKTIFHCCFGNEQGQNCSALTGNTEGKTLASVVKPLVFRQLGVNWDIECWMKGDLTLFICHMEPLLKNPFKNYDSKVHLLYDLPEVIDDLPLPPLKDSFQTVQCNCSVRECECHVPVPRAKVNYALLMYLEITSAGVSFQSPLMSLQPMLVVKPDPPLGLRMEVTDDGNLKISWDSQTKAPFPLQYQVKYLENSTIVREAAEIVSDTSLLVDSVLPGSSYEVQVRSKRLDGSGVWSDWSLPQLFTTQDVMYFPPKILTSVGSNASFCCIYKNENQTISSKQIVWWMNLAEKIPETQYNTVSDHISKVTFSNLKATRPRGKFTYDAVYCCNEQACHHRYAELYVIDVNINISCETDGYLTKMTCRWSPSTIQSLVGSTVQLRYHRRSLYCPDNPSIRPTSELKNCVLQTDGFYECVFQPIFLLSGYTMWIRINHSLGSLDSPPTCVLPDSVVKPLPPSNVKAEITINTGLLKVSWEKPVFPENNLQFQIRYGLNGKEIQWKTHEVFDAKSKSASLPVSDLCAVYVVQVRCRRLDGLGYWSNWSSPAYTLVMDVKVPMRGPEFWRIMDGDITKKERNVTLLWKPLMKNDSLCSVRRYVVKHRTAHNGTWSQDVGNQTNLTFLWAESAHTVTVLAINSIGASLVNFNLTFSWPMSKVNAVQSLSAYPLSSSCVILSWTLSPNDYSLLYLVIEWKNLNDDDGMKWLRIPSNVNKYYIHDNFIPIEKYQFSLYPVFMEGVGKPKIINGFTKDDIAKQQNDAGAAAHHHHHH

[3] = molecular target: T1, human LEPR, full length, on …; experiment: flow cytometry on live HEK293-STAT3Luc-hLepR1 cells, AF647 anti-human IgG; average of 4 runs
[4] = molecular target: T3, cynomolgus monkey LEPR, full length, on HEK293-STAT3Luc-cmLepR2 cells (Macaca fascicularis); experiment: flow cytometry on live HEK293-STAT3Luc-cmLepR2 cells, AF647 anti-human IgG; average of 4 runs
T3 construct: whole, on cells; also called cyno-LEPR; Macaca fascicularis LEPR

[5] = molecular target: T4, Human C1q (MS Biomedical) (human, UniProt P02745 23-245; P02746 28-253; P02747 29-245); experiment: C1q ELISA, plate coated with the antibody at 0.19-10 ug/mL, human C1q added at 10 ug/mL, sheep anti-human C1q-HRP detection, OD450
T4 construct: the three subunits are from general knowledge; also called complement component C1q; Clq

[6] = molecular target: T5, Recombinant LEPR extracellular domain fused to hIgG1-Fc (human LEPR ECD-TEV-Fc) (human); experiment: ELISA, plate coated with human LEPR ECD (SEQ ID NO:30) at 2 ug/mL, antibody titrated 1:3 from 50 ug/mL, goat anti-human kappa AP detection, OD560
T5 construct: The entry holds ECD, TEV site, human IgG1 Fc and a His tag in one chain; also called LEPR-Fc; hLEPR-TEV-hIgG1Fc

Binder | EC50 (nM), pSTAT3 AlphaLISA, after pre-exposure to 30 nM Antibody A and wash-out [1] [nM] | EC50 (nM), pSTAT3 AlphaLISA, vehicle-exposed cells [1] [nM] | Top (%), pSTAT3 AlphaLISA against 30 nM leptin, vehicle-exposed cells [1] [%] | Maximum RLU, pERK1/2 AlphaLISA (baseline 29762.5) [2] [RLU] | binding result (Rat LEPR-ECD-His) | Bottom (gMFI) [3] [gMFI] | Top (gMFI) [3] [gMFI] | Bottom (gMFI) [4] [gMFI] | Top (gMFI) [4] [gMFI] | binding result [5] | EC50 (read off the curve) [6] [µg/mL] | EC50 (nM), pSTAT3 AlphaLISA, after pre-exposure to 30 nM Antibody B and wash-out [1] [nM] | EC50 (nM), pSTAT3 AlphaLISA, after pre-exposure to 30 nM Antibody C and wash-out [1] [nM]
B1 | 0.36 | 0.331 | 68.9 | 86000 | no binding (tested: LEPR-ECD tested up to 1000 nM) | 131 | 2460 | 254 | 12100 | no binding (tested: 10 ug/ml) | ~0.06 | – | –
B2 | – | 0.986 | 70.5 | 83400 | no binding (tested: LEPR-ECD tested up to 1000 nM) | 123 | 2940 | 243 | 12100 | – | ~0.08 | 1.06 | –
B3 | – | 1.04 | 71.7 | 87000 | no binding (tested: LEPR-ECD tested up to 1000 nM) | 144 | 1850 | 214 | 10800 | – | ~0.07 | – | 1.14
